Results reported in publication PMC9619061.
Each block holds one substance with its values, some of them ahead of it.

Legend:
[1] = target: Coproheme decarboxylase from Geobacillus stearothermophilus (HemQ), His-tag partially cleaved (Geobacillus stearothermophilus); experiment: SEC; Superdex 200 10/300, 1 ml/min, 50 mM HEPES pH 7.5, 100 mM NaCl; elution volume compared with the mass of a pentamer
[2] = target: Coproheme decarboxylase from Geobacillus stearothermophilus (HemQ), His-tag partially cleaved (Geobacillus stearothermophilus); experiment: cryo-EM structure; single particle reconstruction, purified protein on glow-discharged gold Quantifoil R 1.2/1.3 grids, 50 mM HEPES pH 7.5, 100 mM NaCl; C5 and C1 symmetry
[3] = target: Coproheme decarboxylase from Geobacillus stearothermophilus (HemQ), His-tag completely cleaved (Geobacillus stearothermophilus); experiment: SEC; Superdex 200 10/300, 1 ml/min, 50 mM HEPES pH 7.5, 100 mM NaCl; elution volume compared with the mass of a pentamer
[4] = target: Coproheme decarboxylase from Geobacillus stearothermophilus (HemQ), His-tag completely cleaved (Geobacillus stearothermophilus); experiment: cryo-EM structure; single particle reconstruction, purified protein on glow-discharged gold Quantifoil R 1.2/1.3 grids, 50 mM HEPES pH 7.5, 100 mM NaCl; C5 and C1 symmetry
[5] = target: Coproheme decarboxylase from Geobacillus stearothermophilus (HemQ), His-tag present in all copies (Geobacillus stearothermophilus); experiment: SEC; Superdex 200 10/300, 1 ml/min, 50 mM HEPES pH 7.5, 100 mM NaCl; elution volume compared with the mass of a pentamer
[6] = target: Coproheme decarboxylase from Geobacillus stearothermophilus (HemQ), His-tag present in all copies (Geobacillus stearothermophilus); experiment: cryo-EM structure; single particle reconstruction, purified protein on glow-discharged gold Quantifoil R 1.2/1.3 grids, 50 mM HEPES pH 7.5, 100 mM NaCl; C5 and C1 symmetry

stoichiometry N [1]: 5
stoichiometry N [2]: 5
Substance: Coproheme decarboxylase from Geobacillus stearothermophilus (HemQ), His-tag partially cleaved (enzyme)

stoichiometry N [3]: 5
stoichiometry N [4]: 5
Substance: Coproheme decarboxylase from Geobacillus stearothermophilus (HemQ), His-tag completely cleaved (enzyme)

stoichiometry N [5]: 5
stoichiometry N [6]: 5
Substance: Coproheme decarboxylase from Geobacillus stearothermophilus (HemQ), His-tag present in all copies (enzyme)
